The series “mass spectrometry” concerns the molecule itself. Description: mass spectrometry.
The series “SEC” deals with the molecule itself. Description: SEC.

B1: Sso6206, recombinant, His tag cleaved by TEV protease (natural protein, Sulfolobus solfataricus P2)
chain: GAMAIRRLVLDVLKPIRGTSIVDLAERISKLDGVEGVNISVTDMDVETMGLMIIIEGTSLNFDDIRKMLEEEGCAIHSIDEVVSGNRIIEGKIKDDL
With B1, the “stoichiometry N” value in the series “mass spectrometry” is at most 6; in “SEC” it was above 10 monomers per protomer.

The values are drawn from publication PMC2197187 (Acta Crystallographica Section F: Structural Biology and …, 2006).
